From patent publication US20230357395A1 come the findings set out here.

The target in the assay is NKp30 (species and construct not stated) (UniProt O14931). The experiment in a line: ELISA. The settings on record: ligand.
Chain of NKp30 (species and construct not stated) (O14931 19-135): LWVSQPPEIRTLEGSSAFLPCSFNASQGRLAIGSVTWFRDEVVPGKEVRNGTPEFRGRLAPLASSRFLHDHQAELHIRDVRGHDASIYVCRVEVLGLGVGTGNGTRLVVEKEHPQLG

Chain of B7-H6 (Q68D85 25-262): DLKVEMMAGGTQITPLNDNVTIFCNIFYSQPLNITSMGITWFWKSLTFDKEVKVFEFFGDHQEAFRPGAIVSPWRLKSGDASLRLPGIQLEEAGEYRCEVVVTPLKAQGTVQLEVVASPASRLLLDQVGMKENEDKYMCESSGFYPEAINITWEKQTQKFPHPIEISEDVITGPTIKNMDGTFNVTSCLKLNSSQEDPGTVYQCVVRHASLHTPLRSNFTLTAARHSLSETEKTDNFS

B7-H6 (from UniProt Q68D85 25-262) gave a Kd of 6.56 nM.
